From patent US20230279153A1 (Regeneron, published 2023)
Substitutions are numbered along the chain they refer to. Values belong to the molecule of their own block, whether it stands above or below them.

Legend:
mouse CD20 [1] = target: T1, mouse CD20 (mouse, UniProt P19437 1-291); assay: flow cytometry on HEK293/mCD20 cells
T1 construct: whole, on cells; also called mCD20; murine CD20
T1 sequence (looked up): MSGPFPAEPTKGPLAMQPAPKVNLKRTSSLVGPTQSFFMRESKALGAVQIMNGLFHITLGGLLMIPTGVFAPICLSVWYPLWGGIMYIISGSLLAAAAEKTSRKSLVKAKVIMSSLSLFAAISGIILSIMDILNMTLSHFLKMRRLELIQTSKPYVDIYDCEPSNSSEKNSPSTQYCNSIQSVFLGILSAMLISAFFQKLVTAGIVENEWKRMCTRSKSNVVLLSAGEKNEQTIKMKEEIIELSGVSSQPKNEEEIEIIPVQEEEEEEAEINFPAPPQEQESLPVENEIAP
Procedure: (§1) Cells (HEK 293, MC38 over-expressing mCD20 or Jurkat over-expressing mPD1) were resuspended in FACS wash (PBS with 1% FBS) at 1×10⁶ cells/mL. The staining was performed in 1×10⁵ cells per well. The antibodies were diluted with a ratio of 1:5 from a starting concentration of 1.3×10⁻⁰⁷ M. The diluted antibodies were then added into the wells containing cells. Cells were stained for 30 min at 2-8° C. and washed twice with FACS wash buffer. APC-conjugated goat anti-human IgG (Jackson Immuno Research, 109-607-003, 1:400) was added to stain the cells for 30 min at 2-8° C. Following washing, cells were fixed in 2% paraformaldehyde for 30 min at 2-8° C. After two washes, stained cells were analyzed using BD LSRFortessa™ FACS instrument. The results were analyzed by FlowJo. FSC/SSC gates were used to select mononuclear cells.

mouse PD1 [2] = target: T2, mouse PD1 (mouse, UniProt Q02242 25-288); assay: cell-based or functional assay
T2 sequence (looked up): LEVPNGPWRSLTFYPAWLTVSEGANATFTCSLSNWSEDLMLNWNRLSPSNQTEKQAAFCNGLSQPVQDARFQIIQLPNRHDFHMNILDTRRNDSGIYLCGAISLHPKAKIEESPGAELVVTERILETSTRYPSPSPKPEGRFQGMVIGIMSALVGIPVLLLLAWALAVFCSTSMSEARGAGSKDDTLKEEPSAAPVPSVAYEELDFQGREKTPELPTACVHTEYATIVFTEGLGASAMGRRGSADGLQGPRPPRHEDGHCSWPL

mouse CD20 [3] = target: T1, mouse CD20; assay: flow cytometry on MC38/mCD20 cells
Procedure: as §1

mouse PD1 [4] = target: T2, mouse PD1; assay: flow cytometry on Jurkat/mPD1 cells
Procedure: as §1

Max MFI (mouse CD20 [3]): 94.9 MFI
Molecule: Single arm mPDL1 WT-Fc (from UniProt Q9EP73 19-239) (Fc fusion)

EC50 (mouse CD20 [1]): 13.5 nM | Max MFI (mouse CD20 [1]): 28200 MFI | Max % inhibition, luciferase bioassay, 1nM CD3 bsAb (mouse PD1 [2]): 19% | Max % inhibition, luciferase bioassay, 2.5 nM CD3 bsAb (mouse PD1 [2]): 0% | EC50 (mouse CD20 [3]): 1.71 nM | Max MFI (mouse CD20 [3]): 42000 MFI | Max MFI (mouse PD1 [4]): 118 MFI
B2: 1B12IgG1EN (antibody)
heavy 1: QVQLQQPGAELVRPGTSVKLSCKASGYTFTSYWMHWIKQRPGQGLEWIGVIDPSDNYTKYNQKFKGKATLTVDTSSSTAYMQLSSLTSEDSAVYFCAREGYYGSSPWFAYWGQGTLVTVSSASTKGPSVFPLAPSSKSTSGGTAALGCLVKDYFPEPVTVSWNSGALTSGVHTFPAVLQSSGLYSLSSVVTVPSSSLGTQTYICNVNHKPSNTKVDKKVEPKSCDKTHTCPPCPAPEAEGAPSVFLFPPKPKDTLMISRTPEVTCVVVDVSHEDPEVKFNWYVDGVEVHNAKTKPREEQYNSTYRVVSVLTVLHQDWLNGKEYKCKVSNKALPSSIEKTISKAKGQPREPQVYTLPPCRDELTKNQVSLWCLVKGFYPSDIAVEWESNGQPENNYKTTPPVLDSDGSFFLYSKLTVDKSRWQQGNVFSCSVMHEALHNHYTQKSLSLSPGK
heavy 2: B2 heavy 1 with Y353C, C358S, W370S, L372A, Y411V, H439R, Y440F
light: QIVMSQSPAILSASPGEKVTMTCRARSSVSYIHWYQQKPGSSPKPWIYATSNLASGVPGRFSGSGSGTSYSLTITRVEAEDAATYYCQQWSSKPPTFGGGTKLEIKRTVAAPSVFIFPPSDEQLKSGTASVVCLLNNFYPREAKVQWKVDNALQSGNSQESVTEQDSKDSTYSLSSTLTLSKADYEKHKVYACEVTHQGLSSPVTKSFNRGEC
notes: Control, bivalent anti-mCD20 IgG with knob and hole-star heavy chains; also called 1B12lgG1EN
binding result (mouse PD1 [4]): no binding (tested: starting concentration of 1.3×10^-07 M)

Further lines, the molecule ahead of its results:

Molecule: REGN1932 (hIgG1 control) (antibody)
Max MFI (mouse CD20 [1]): 14.3 MFI | Max % inhibition, luciferase bioassay, 2.5 nM CD3 bsAb (mouse PD1 [2]): 3% | Max MFI (mouse CD20 [3]): 140 MFI | Max MFI (mouse PD1 [4]): 90.4 MFI

B1: 18B12-scFvFc (scFv, V domains shown)
VH: QVQLQQPGAELVRPGTSVKLSCKASGYTFTSYWMHWIKQRPGQGLEWIGVIDPSDNYTKYNQKFKGKATLTVDTSSSTAYMQLSSLTSEDSAVYFCAREGYYGSSPWFAYWGQGTLVTVSS
VL: QIVMSQSPAILSASPGEKVTMTCRARSSVSYIHWYQQKPGSSPKPWIYATSNLASGVPGRFSGSGSGTSYSLTITRVEAEDAATYYCQQWSSKPPTFGGGTKLEIK
EC50 (mouse CD20 [3]): 18 nM | Max MFI (mouse CD20 [3]): 48300 MFI | Max MFI (mouse PD1 [4]): 198 MFI | binding result (mouse PD1 [4]): no binding (tested: starting concentration of 1.3×10^-07 M)
